The values that follow come from patent US20240400677A1 (ELECTRA THERAPEUTICS, published 2024).

Test [1] has as its target T1, cynomolgus monkey SIRPα on CHO cells (cynomolgus monkey, UniProt A0A2K5VYQ9 31-507).
T1 construct: whole, on cells; also called Cyno SIRPα CHO
T1 sequence: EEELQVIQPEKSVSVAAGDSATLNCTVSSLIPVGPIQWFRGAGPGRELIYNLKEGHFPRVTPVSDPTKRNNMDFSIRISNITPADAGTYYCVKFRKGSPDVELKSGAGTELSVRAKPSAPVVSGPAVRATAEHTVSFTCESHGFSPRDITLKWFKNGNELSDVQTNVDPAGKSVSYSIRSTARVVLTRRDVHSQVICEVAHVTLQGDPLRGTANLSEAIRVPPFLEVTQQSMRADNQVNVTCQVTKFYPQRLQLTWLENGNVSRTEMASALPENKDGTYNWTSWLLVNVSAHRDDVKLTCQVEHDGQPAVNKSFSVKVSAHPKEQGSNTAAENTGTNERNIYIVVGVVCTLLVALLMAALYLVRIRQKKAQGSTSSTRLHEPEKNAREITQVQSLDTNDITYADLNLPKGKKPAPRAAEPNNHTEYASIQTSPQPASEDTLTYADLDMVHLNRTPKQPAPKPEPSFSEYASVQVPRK
The test can be described thus: flow cytometry.

Test [2] has as its target T2, human SIRPβ1 on CHO cells (co-transfected with DAP12) (human, UniProt O00241 30-398).
T2 construct: whole, on cells; co-transfected with DAP12; also called Human SIRPβ1 CHO
The test can be described thus: flow cytometry.

Test [3] deals with T3, cynomolgus monkey SIRPγ on CHO cells (cynomolgus monkey, UniProt Q9P1W8 29-386 (human entry)).
T3 construct: also called Cyno SIRPγ CHO
T3 chain: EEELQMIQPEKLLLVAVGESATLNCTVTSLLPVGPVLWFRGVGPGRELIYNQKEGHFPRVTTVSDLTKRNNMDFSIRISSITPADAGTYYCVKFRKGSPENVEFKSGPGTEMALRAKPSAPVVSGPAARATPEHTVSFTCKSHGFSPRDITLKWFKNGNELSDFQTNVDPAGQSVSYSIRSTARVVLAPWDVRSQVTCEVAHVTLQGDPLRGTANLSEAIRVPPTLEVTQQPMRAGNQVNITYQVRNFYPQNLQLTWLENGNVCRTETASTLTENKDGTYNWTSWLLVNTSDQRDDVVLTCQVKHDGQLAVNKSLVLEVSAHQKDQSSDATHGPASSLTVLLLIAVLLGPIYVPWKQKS
The test can be described thus: flow cytometry, myc-scFv PPE. The procedure: (§1) Selected antibodies were tested for binding to stably transfected human SIRPγ, SIRPαV1, or SIRPβ1 (co-transfected with DAP12) Chinese hamster ovary (CHO) cells via flow cytometry. A titration of select antibodies was added to the cells and detected using a fluorescently labelled secondary anti-rat IgG antibody or anti-human IgG antibody. Graphs depict the median fluorescence intensity (MFI) at each concentration. FIGS. 5A and 5G show the binding curves of select antibodies to human SIRPγ, cynomolgus monkey SIRPγ, human SIRPα, cynomolgus monkey SIRPα, human SIRPβ1, or cynomolgus monkey SIRPβl-expressing CHO cells detected using an anti-rat IgG antibody. FIGS. 5B-5F and 5H-5L show the binding curves of select antibodies to human SIRPγ, cynomolgus monkey SIRPγ, human SIRPα, cynomolgus monkey SIRPα, human SIRPβ1, or cynomolgus monkey SIRPβ1-expressing CHO cells detected using an anti-human IgG antibody. […] For select antibodies, each myc-tagged SIRPγ scFv antibody as crude PPE was incubated with each of the SIRP-expressing cell lines stated above along with the parental CHO-K1 cell line. […] Fold change value <2.0 is considered a non-binder.
(In general: In flow cytometry, cells or beads pass a laser one at a time.)

Test [4] deals with T4, human SIRPγ on stably transfected CHO cells (human, UniProt Q9P1W8 29-387).
T4 construct: also called Human SIRPγ CHO
T4 sequence (Q9P1W8 29-387 limits assumed): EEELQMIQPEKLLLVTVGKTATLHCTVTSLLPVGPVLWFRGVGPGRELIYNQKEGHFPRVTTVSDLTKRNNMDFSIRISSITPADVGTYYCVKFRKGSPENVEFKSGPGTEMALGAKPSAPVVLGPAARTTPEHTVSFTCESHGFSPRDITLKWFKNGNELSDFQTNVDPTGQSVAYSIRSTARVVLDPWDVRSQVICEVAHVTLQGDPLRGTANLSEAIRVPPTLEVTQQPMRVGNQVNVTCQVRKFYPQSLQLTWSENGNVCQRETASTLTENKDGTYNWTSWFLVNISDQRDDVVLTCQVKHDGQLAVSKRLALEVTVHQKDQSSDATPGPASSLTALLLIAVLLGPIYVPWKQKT
Put plainly: flow cytometry, myc-scFv PPE. The procedure: as §1

Test [5] deals with T5, human SIRPγ-His monomer protein (human, UniProt Q9P1W8 29-360).
T5 construct: also called hSIRPγ
T5 sequence (Q9P1W8 29-360 limits assumed): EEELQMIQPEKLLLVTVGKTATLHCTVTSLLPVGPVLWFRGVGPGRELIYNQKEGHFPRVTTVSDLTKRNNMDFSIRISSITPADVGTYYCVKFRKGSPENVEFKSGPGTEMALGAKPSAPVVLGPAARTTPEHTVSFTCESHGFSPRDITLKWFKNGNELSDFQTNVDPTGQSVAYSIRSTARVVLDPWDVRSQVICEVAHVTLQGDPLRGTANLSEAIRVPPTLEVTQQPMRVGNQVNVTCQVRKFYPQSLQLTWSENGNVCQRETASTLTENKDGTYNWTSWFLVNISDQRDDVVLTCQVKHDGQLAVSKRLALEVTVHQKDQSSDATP
Put plainly: BLI Octet, V5-scFv PPE captured, SIRP-His 500 nM. On the technique in general: Biolayer interferometry detects binding as a change in optical thickness at a sensor tip.

T2 sequence (O00241 30-398): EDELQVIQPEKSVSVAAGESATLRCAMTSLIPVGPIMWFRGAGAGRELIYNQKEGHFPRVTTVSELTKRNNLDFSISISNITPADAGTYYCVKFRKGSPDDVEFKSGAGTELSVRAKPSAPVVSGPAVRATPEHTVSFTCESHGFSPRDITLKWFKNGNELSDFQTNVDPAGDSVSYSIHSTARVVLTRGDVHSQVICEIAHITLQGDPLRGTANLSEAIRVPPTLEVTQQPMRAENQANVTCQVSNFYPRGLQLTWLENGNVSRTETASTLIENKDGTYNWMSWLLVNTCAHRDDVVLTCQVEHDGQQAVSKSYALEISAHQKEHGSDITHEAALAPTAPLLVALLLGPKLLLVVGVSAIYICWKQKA

B1: Antibody 45 (scFv, V domains shown)
VH: QVQLVQSGAEVKKPGASVKVSCKASGYTFTSYGISWVRQAPGQGLEWMGWISAYNGNTNYAQKFQGRVTMTRDTSTSTVYMELSSLRSEDTAVYYCARGTYYDYIWGSYRYSWFDYWGQGTLVTVSS
VL: not shown
notes: scFv in crude PPE, V5/myc-tagged
With B1, the binding result in test [1] and in test [2] was “no binding (tested: fold change <2.0)” in each case. Besides, the “MFI fold change over parental CHO” value is 18.2 fold in test [3] and 24.3 fold in test [4]. Besides, the kdis in test [5] is over 0.01 s⁻¹.

B2: Antibody 24 (scFv, V domains shown)
VH: QVQLVQSGAEVKKPGASVKVSCKASGYTFTGYYMHWVRQAPGQGLEWMGIINPSGGSTNYAQKFQGRVTMTRDTSTSTVYMELSSLRSEDTAVYYCARGPIGYGMDVWGQGTLVTVSS
VL: DIQMTQSPSSLSASVGDRVTITCRASQGIGNDLGWYQQKPGKAPKLLIYAASNLETGVPSRFSGSGSGTDFTLTISSLQPEDFATYYCLQHHSYPFTFGQGTKLEIK
notes: as for B1
Turning to B2, the binding result in test [1] and in test [2] was “no binding (tested: fold change <2.0)” each time. The “MFI fold change over parental CHO” value in test [3] came out at 9.85 fold; in test [4] it was 11.1 fold. Moreover, the kdis in test [5] was over 0.01 s⁻¹.

B3: Antibody 29 (scFv, V domains shown)
VH: QVQLVQSGAEVKKPGASVKVSCKASGGTFSSYAISWVRQAPGQGLEWMGIINPSSSSTGYAQKFQGRVTMTRDTSTSTVYMELSSLRSEDTAVYYCARAGYYDSSGYYYSPYYGMDVWGQGTTVTVSS
VL: EIVMTQSPATLSVSPGERATLSCRASQSISGSYLAWYQQKPGQAPRLLIYGASTRATGIPARFSGSGSGTEFTLTISSLQSEDFAVYYCQQYGSFPFTFGPGTKVDIK
notes: as for B1
In the case of B3, the binding result in test [1] and in test [2] was “no binding (tested: fold change <2.0)” each time. Also, the “MFI fold change over parental CHO” value in test [3] is 13 fold; in test [4], 11.4 fold. For the same molecule, the kdis in test [5] lay within 0.001 to 0.01 s⁻¹.

B4: Antibody 27 (scFv, V domains shown)
VH: QVQLVQSGAEVKKPGASVKVSCKASGYTFTSHDINWVRQAPGQGLEWMGWMNANNGNAGYAQKFQGRVTMTRDTSTSTVYMELSSLRSEDTAVYYCAKDLSPSSSWSTYYYYYGMDVWGQGTMVTVSS
VL: DIQMTQSPSSLSASVGDRVTITCRASQSISNLLAWYQQKPGKAPKLLIYAASSLQSGVPSRFSGSGSGTDFTLTISSLQPEDFATYYCQQSYSTPYTFGQGTKLEIK
notes: as for B1
Consider B4, for which the binding result in test [1] and in test [2] was “no binding (tested: fold change <2.0)” throughout. For the same molecule, the “MFI fold change over parental CHO” value in test [3] is 5.81 fold; in test [4] it was 23.2 fold. In test [5], the kdis lay in the range of 0.001 to 0.01 s⁻¹.

B5: Antibody 36 (scFv, V domains shown)
VH: QVQLVQSGAEVKKPGASVKVSCKASGYTFTDNYLHWVRQAPGQGLEWMGIIETSGGSTDYAQKFQGRVTMTRDTSTSTVYMELSSLRSEDTAVYYCARSFGGYSYDDAFDIWGQGTTVTVSS
VL: DIQMTQSPSSLSASVGDRVTITCQASQGISNYLNWYQQKPGKAPKLLIYAASSLQSGVPSRFSGSGSGTDFTLTISSLQPEDFATYYCQQSYSSPYTFGQGTKVEIK
notes: as for B1
Consider B5, for which the binding result in test [1] and in test [2] was “no binding (tested: fold change <2.0)” throughout. Also, the “MFI fold change over parental CHO” value in test [3] came out at 37.7 fold; in test [4] it was 42.4 fold. Moreover, the kdis in test [5] is under 0.001 s⁻¹.

B6: Antibody 32 (scFv, V domains shown)
VH: QVQLVQSGAEVKKPGASVKVSCKASGYTFTSYYMYWVRQAPGQGLEWMGWINPNSGNTGYAQKFQGRVTMTRDTSTSTVYMELSSLRSEDTAVYYCAKDRRRGVGLAAAGTSAFDIWGQGTMVTVSS
VL: DIQMTQSPSSLSASVGDRVTITCRASQSISNWLAWYQQKPGKAPKLLIYAASSLQSGVPSRFSGSGSGTDFTLTISSLQPEDFATYYCQQSYSTPYTFGQGTKLEIK
notes: as for B1
Consider B6, for which the binding result in test [1] and in test [2] was “no binding (tested: fold change <2.0)” in each case. Moreover, the “MFI fold change over parental CHO” value in test [3] turned out to be 9.63 fold; in test [4], 10.2 fold. This molecule also had a kdis in test [5] of under 0.001 s⁻¹.

B7: Antibody 33 (scFv, V domains shown)
VH: QVQLVQSGAEVKKPGASVKVSCKASGYTFTSYYMHWVRQAPGQGLEWMGWMNPNSDNTGYAQKFQGRVTMTRDTSTSTVYMELSSLRSEDTAVYYCARVGVGYGYYYYGMDVWGQGTTVTVSS
VL: DIQMTQSPSSLSASVGDRVTITCRAGQSIGDYLNWYQQKPGKAPKLLIYAASSLQSGVPSRFSGSGSGTDFTLTISSLQPEDFATYYCQQSYSTPWTFGQGTKVEIK
notes: as for B1
Turning to B7, the binding result in test [1] and in test [2] was “no binding (tested: fold change <2.0)” each time. In addition, the “MFI fold change over parental CHO” value in test [3] came out at 8.02 fold; in test [4] it was 20 fold. Further, in test [5], the kdis was in the range of 0.001 to 0.01 s⁻¹.

B8: Antibody 34 (scFv, V domains shown)
VH: QVQLVQSGAEVKKPGASVKVSCKASGYTFSNYYMHWVRQAPGQGLEWMGWMNPNSGNTGYAQKFQGRVTMTRDTSTSTVYMELSSLRSEDTAVYYCARASMYSSSGFDYWGQGTLVTVSS
VL: DIVMTQSPLSLPVTPGEPASISCRSSQSLLHSNGYNYLDWYLQKPGQSPQLLIYLASTRAPGVPDRFSGSGSGTDFTLKISRVEAEDVGVYYCMQGSHWPPSFGQGTRLEIK
notes: as for B1
In the case of B8, the binding result in test [1] and in test [2] was “no binding (tested: fold change <2.0)” in each case. Also, the “MFI fold change over parental CHO” value in test [3] came to 12 fold; in test [4], 18.7 fold. This molecule also came in with a kdis in test [5] of 0.001 to 0.01 s⁻¹.

B9: Antibody 39 (scFv, V domains shown)
VH: QVQLVQSGAEVKKPGASVKVSCKASGGTFSNYGFSWVRQAPGQGLEWMGWMSPSSGNTGYAQKFQGRVTMTRDTSTSTVYMELSSLRSEDTAVYYCARERSGSYFDYWGQGTLVTVSS
VL: EIVMTQSPATLSVSPGERATLSCRASQSVSSYLAWYQQKPGQAPRLLIYGTSTRATGIPARFSGSGSGTEFTLTISSLQSEDFAVYYCQQYGSLPFTFGQGTRLEIK
notes: as for B1
On to B9, for which the binding result in test [1] and in test [2] was “no binding (tested: fold change <2.0)” each time. The figures for the “MFI fold change over parental CHO” value in test [3] and in test [4] were 39.5 fold and 16.4 fold, respectively. The molecule further showed a kdis in test [5] of 0.001 to 0.01 s⁻¹.

B10: Antibody 44 (scFv, V domains shown)
VH: QVQLVQSGAEVKKPGSSVKVSCKASGGTFSKIAVSWVRQAPGQGLEWMGLINPNSGGTDYAQKFQGRVTITADESTSTAYMELSSLRSEDTAVYYCAKDFRGGDYYYYGMDVWGQGTTVTVSS
VL: EIVMTQSPATLSVSPGERATLSCRASQSVSSNLAWYQQKPGQAPRLLIYGASTRATGIPARFSGSGSGTEFTLTISSLQSEDFAVYYCQQYNTYPITFGQGTKVEIK
notes: as for B1
Turning to B10, the binding result in test [1] and in test [2] was “no binding (tested: fold change <2.0)” each time. Moreover, the “MFI fold change over parental CHO” value in test [3] is 26.7 fold; in test [4] it was 16 fold. Besides, in test [5], the kdis is over 0.01 s⁻¹.

B11: Antibody 38 (scFv, V domains shown)
VH: QVQLVQSGAEVKKPGASVKVSCKASGGTFSSYDINWVRQAPGQGLEWMGWMNPNSGNTGYAQKFQGRVTMTRDTSTSTVYMELSSLRSEDTAVYYCARDLTLYCSSTSCLDAFDYWGQGTLVTVSS
VL: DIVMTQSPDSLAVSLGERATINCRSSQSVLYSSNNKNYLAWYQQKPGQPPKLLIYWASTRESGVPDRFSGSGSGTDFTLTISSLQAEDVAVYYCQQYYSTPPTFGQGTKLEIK
notes: as for B1
Consider B11, for which the binding result in test [1] and in test [2] was “no binding (tested: fold change <2.0)” each time. The “MFI fold change over parental CHO” value in test [3] turned out to be 16.7 fold; in test [4] it was 14.8 fold. For the same molecule, the kdis in test [5] lay in the range of 0.001 to 0.01 s⁻¹.
